{"source": "patent US20260167710A1", "about": "(GlaxoSmithKline, published 2026)", "key": {"human IL-33 [1]": {"target": "T1, human IL-33 (human, Biotinylated in Example 2; the site is not stated.)", "T1 chain": "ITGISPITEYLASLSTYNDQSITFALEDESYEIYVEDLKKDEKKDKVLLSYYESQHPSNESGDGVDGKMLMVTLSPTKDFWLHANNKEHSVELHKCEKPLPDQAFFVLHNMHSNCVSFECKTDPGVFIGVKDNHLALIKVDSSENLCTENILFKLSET", "test": "cell-based or functional assay"}, "human IL-33 [2]": {"target": "T1, human IL-33", "test": "cell-based or functional assay"}, "[3]": {"target": "T2, human complement component C1q (human, UniProt P02745 23-245; P02746 28-253; P02747 29-245)", "T2 construct": "also called human recombinant soluble complement C1q; Sigma #C1740-5 mg", "T2 sequence (P02745 23-245 limits assumed, chain 1 of 3)": "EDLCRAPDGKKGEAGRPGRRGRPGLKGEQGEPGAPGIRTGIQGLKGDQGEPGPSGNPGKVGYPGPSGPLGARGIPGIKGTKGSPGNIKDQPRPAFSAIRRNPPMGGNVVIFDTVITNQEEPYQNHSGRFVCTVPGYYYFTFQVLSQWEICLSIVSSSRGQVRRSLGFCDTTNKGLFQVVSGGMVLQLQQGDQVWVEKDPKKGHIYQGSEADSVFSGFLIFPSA", "T2 sequence (P02746 28-253 limits assumed, chain 2 of 3)": "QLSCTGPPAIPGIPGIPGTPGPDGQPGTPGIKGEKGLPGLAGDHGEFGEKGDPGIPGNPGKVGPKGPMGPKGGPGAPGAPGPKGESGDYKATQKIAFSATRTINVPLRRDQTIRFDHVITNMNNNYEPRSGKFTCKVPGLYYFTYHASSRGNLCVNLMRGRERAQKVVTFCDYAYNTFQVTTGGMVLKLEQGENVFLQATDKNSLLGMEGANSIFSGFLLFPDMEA", "T2 sequence (P02747 29-245 limits assumed, chain 3 of 3)": "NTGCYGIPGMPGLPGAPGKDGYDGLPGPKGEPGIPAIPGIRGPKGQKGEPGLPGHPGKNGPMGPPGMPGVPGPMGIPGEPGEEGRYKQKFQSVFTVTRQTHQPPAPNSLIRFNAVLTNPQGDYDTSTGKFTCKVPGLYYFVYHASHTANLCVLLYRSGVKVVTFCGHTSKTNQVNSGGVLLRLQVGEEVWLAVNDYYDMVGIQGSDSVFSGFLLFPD", "test": "SPR (ProteOn XPR36), antibody immobilised by amine coupling, C1q as analyte, equilibrium fit, 25 C"}, "human IL-33 [4]": {"target": "T1, human IL-33", "test": "cell-based or functional assay"}, "cFcgRIIb": {"target": "T3, cFcgRIIb (cynomolgus monkey)", "T3 construct": "extracellular domain", "test": "SPR (ProteOn XPR36), anti-poly-histidine IgG surface, antibody as analyte, equilibrium fit, 25 C"}, "cFcgRIIIa": {"target": "T4, cFcgRIIIa (cynomolgus monkey)", "T4 construct": "extracellular domain", "T4 sequence (Q8SPW2 17-208)": "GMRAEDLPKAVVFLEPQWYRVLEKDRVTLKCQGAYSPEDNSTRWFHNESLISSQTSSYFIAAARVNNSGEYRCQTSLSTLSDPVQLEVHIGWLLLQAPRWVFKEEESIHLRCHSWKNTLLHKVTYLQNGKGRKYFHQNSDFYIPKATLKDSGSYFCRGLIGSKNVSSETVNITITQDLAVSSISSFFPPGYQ", "test": "SPR (ProteOn XPR36), anti-poly-histidine IgG surface, antibody as analyte, equilibrium fit, 25 C"}, "hFcgRIIIa (V158)": {"target": "T5, hFcgRIIIa (V158) (human, UniProt P08637 17-208)", "T5 construct": "extracellular domain", "T5 sequence (P08637 17-208 F176V)": "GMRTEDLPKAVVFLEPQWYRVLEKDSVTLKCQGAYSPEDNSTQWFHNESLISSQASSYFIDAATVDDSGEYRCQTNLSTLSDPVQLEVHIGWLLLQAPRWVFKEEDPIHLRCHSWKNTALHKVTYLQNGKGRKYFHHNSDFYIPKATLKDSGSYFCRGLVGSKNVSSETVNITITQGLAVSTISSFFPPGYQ", "test": "SPR (ProteOn XPR36), anti-poly-histidine IgG surface, antibody as analyte, equilibrium fit, 25 C"}, "hFcgRIIa (H131)": {"target": "T6, hFcgRIIa (H131) (human, UniProt P12318 34-217)", "T6 construct": "extracellular domain; His at position 131 (mature numbering as commonly used)", "T6 sequence (looked up)": "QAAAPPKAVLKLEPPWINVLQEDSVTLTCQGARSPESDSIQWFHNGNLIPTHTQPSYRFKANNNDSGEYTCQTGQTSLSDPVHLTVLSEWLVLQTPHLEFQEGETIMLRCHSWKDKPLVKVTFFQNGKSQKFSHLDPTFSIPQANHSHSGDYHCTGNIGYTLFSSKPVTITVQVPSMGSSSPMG", "test": "SPR (ProteOn XPR36), anti-poly-histidine IgG surface, antibody as analyte, equilibrium fit, 25 C"}, "hFcgRIIb": {"target": "T7, hFcgRIIb (human, UniProt P31994 43-217)", "T7 construct": "extracellular domain", "T7 sequence (looked up)": "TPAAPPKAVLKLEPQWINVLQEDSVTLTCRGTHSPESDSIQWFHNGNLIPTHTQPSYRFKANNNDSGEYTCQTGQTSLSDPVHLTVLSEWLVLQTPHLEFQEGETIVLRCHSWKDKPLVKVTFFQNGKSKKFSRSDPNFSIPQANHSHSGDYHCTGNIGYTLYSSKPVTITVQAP", "test": "SPR (ProteOn XPR36), anti-poly-histidine IgG surface, antibody as analyte, equilibrium fit, 25 C"}}}
{"binder": "22A06-458 (antibody, human IgG1, kappa) heavy: QVQLVQSGAEVKKPGASVKVSCKASGYTFISYGMHWVRQAPGQGLEWMGEINPHGGSTSYAQKFKGRVTMTRDTSTSTVYMELSSLRSEDTAVYYCARPSAAYSHYLGIDLWGRGTLVTVSSASTKGPSVFPLAPSSKSTSGGTAALGCLVKDYFPEPVTVSWNSGALTSGVHTFPAVLQSSGLYSLSSVVTVPSSSLGTQTYICNVNHKPSNTKVDKKVEPKSCDKTHTCPPCPAPELLGGPSVFLFPPKPKDTLYITREPEVTCVVVDVSHEDPEVKFNWYVDGVEVHNAKTKPREEQYNSTYRVVSVLTVLHQDWLNGKEYKCKVSNKALPAPIEKTISKAKGQPREPQVYTLPPSRDELTKNQVSLTCLVKGFYPSDIAVEWESNGQPENNYKTTPPVLDSDGSFFLYSKLTVDKSRWQQGNVFSCSVMHEALHNHYTQKSLSLSPGK light: DIQMTQSPSSVSASVGDRVTITCRASQGISSWLAWYQQKPGKAPKLLIYAASRLQSGVPSRFSGSGSGTDFTLTISSLQPEDFATYYCQQANVFPLTFGGGTKVEIKRTVAAPSVFIFPPSDEQLKSGTASVVCLLNNFYPREAKVQWKVDNALQSGNSQESVTEQDSKDSTYSLSSTLTLSKADYEKHKVYACEVTHQGLSSPVTKSFNRGEC", "values": [{"measurement": "pIC50, inhibition of 30 ng/mL IL-33/IL-12 induced IFN-γ secretion from whole blood, pre-complexed, donor #92187", "setting": "human IL-33 [1]", "result": 8.3}, {"measurement": "pIC50, inhibition of 30 ng/mL IL-33/IL-12 induced IFN-γ secretion from whole blood, pre-complexed, donor #92257", "setting": "human IL-33 [1]", "result": 8.75}, {"measurement": "pIC50, inhibition of 30 ng/mL IL-33/IL-12 induced IFN-γ secretion from whole blood, pre-complexed, donor #92258", "setting": "human IL-33 [1]", "result": 8.3}, {"measurement": "IC50, inhibition of IL-33 (125 pM) induced IFN-γ secretion from CD4+ T cells, pre-complexed, Mean", "setting": "human IL-33 [2]", "result": 675, "unit": "pM"}, {"measurement": "IC50, inhibition of IL-33 (125 pM) induced IFN-γ secretion from CD4+ T cells, pre-complexed, N = 1", "setting": "human IL-33 [2]", "result": 1060, "unit": "pM"}, {"measurement": "IC50, inhibition of IL-33 (125 pM) induced IFN-γ secretion from CD4+ T cells, pre-complexed, N = 2", "setting": "human IL-33 [2]", "result": 936, "unit": "pM"}, {"measurement": "IC50, inhibition of IL-33 (125 pM) induced IFN-γ secretion from CD4+ T cells, pre-complexed, N = 3", "setting": "human IL-33 [2]", "result": 282, "unit": "pM"}, {"measurement": "IC50, inhibition of IL-33 (125 pM) induced IFN-γ secretion from CD4+ T cells, pre-complexed, N = 4", "setting": "human IL-33 [2]", "result": 591, "unit": "pM"}, {"measurement": "IC50, inhibition of IL-33 (125 pM) induced IFN-γ secretion from CD4+ T cells, pre-complexed, N = 5", "setting": "human IL-33 [2]", "result": 790, "unit": "pM"}, {"measurement": "IC50, inhibition of IL-33 (125 pM) induced IFN-γ secretion from CD4+ T cells, pre-complexed, N = 6", "setting": "human IL-33 [2]", "result": 497, "unit": "pM"}, {"measurement": "IC50, inhibition of IL-33 (125 pM) induced IFN-γ secretion from CD4+ T cells, pre-complexed, N = 7", "setting": "human IL-33 [2]", "result": 574, "unit": "pM"}, {"measurement": "pIC50, inhibition of IL-33 (125 pM) induced IFN-γ secretion from CD4+ T cells, pre-complexed, Mean", "setting": "human IL-33 [2]", "result": 9.2}, {"measurement": "pIC50, inhibition of IL-33 (125 pM) induced IFN-γ secretion from CD4+ T cells, pre-complexed, N = 1", "setting": "human IL-33 [2]", "result": 8.97}, {"measurement": "pIC50, inhibition of IL-33 (125 pM) induced IFN-γ secretion from CD4+ T cells, pre-complexed, N = 2", "setting": "human IL-33 [2]", "result": 9.02}, {"measurement": "pIC50, inhibition of IL-33 (125 pM) induced IFN-γ secretion from CD4+ T cells, pre-complexed, N = 3", "setting": "human IL-33 [2]", "result": 9.54}, {"measurement": "pIC50, inhibition of IL-33 (125 pM) induced IFN-γ secretion from CD4+ T cells, pre-complexed, N = 4", "setting": "human IL-33 [2]", "result": 9.22}, {"measurement": "pIC50, inhibition of IL-33 (125 pM) induced IFN-γ secretion from CD4+ T cells, pre-complexed, N = 5", "setting": "human IL-33 [2]", "result": 9.1}, {"measurement": "pIC50, inhibition of IL-33 (125 pM) induced IFN-γ secretion from CD4+ T cells, pre-complexed, N = 6", "setting": "human IL-33 [2]", "result": 9.3}, {"measurement": "pIC50, inhibition of IL-33 (125 pM) induced IFN-γ secretion from CD4+ T cells, pre-complexed, N = 7", "setting": "human IL-33 [2]", "result": 9.24}, {"measurement": "Kd", "setting": "[3]", "result": 213, "unit": "nM"}, {"measurement": "IC50, inhibition of 100 ng/mL IL-33/IL-12 induced IFN-γ secretion from whole blood, pre-complexed, Mean", "setting": "human IL-33 [4]", "result": 3.9, "unit": "nM"}, {"measurement": "IC50, inhibition of 100 ng/mL IL-33/IL-12 induced IFN-γ secretion from whole blood, pre-complexed, donor #91232", "setting": "human IL-33 [4]", "result": 2.79, "unit": "nM"}, {"measurement": "IC50, inhibition of 100 ng/mL IL-33/IL-12 induced IFN-γ secretion from whole blood, pre-complexed, donor #91845", "setting": "human IL-33 [4]", "result": 5.75, "unit": "nM"}, {"measurement": "IC50, inhibition of 100 ng/mL IL-33/IL-12 induced IFN-γ secretion from whole blood, pre-complexed, donor #91865", "setting": "human IL-33 [4]", "result": 0.88, "unit": "nM"}, {"measurement": "IC50, inhibition of 100 ng/mL IL-33/IL-12 induced IFN-γ secretion from whole blood, pre-complexed, donor #92023", "setting": "human IL-33 [4]", "result": 3.43, "unit": "nM"}, {"measurement": "IC50, inhibition of 100 ng/mL IL-33/IL-12 induced IFN-γ secretion from whole blood, pre-complexed, donor #92186", "setting": "human IL-33 [4]", "result": 3.01, "unit": "nM"}, {"measurement": "IC50, inhibition of 100 ng/mL IL-33/IL-12 induced IFN-γ secretion from whole blood, pre-complexed, donor #92187", "setting": "human IL-33 [4]", "result": 4.75, "unit": "nM"}, {"measurement": "IC50, inhibition of 100 ng/mL IL-33/IL-12 induced IFN-γ secretion from whole blood, pre-complexed, donor #92257", "setting": "human IL-33 [4]", "result": 2.66, "unit": "nM"}, {"measurement": "IC50, inhibition of 100 ng/mL IL-33/IL-12 induced IFN-γ secretion from whole blood, pre-complexed, donor #92258", "setting": "human IL-33 [4]", "result": 7.9, "unit": "nM"}, {"measurement": "pIC50, inhibition of 100 ng/mL IL-33/IL-12 induced IFN-γ secretion from whole blood, pre-complexed, Mean", "setting": "human IL-33 [4]", "result": 8.48}, {"measurement": "pIC50, inhibition of 100 ng/mL IL-33/IL-12 induced IFN-γ secretion from whole blood, pre-complexed, donor #91232", "setting": "human IL-33 [4]", "result": 8.55}, {"measurement": "pIC50, inhibition of 100 ng/mL IL-33/IL-12 induced IFN-γ secretion from whole blood, pre-complexed, donor #91845", "setting": "human IL-33 [4]", "result": 8.24}, {"measurement": "pIC50, inhibition of 100 ng/mL IL-33/IL-12 induced IFN-γ secretion from whole blood, pre-complexed, donor #91865", "setting": "human IL-33 [4]", "result": 9.05}, {"measurement": "pIC50, inhibition of 100 ng/mL IL-33/IL-12 induced IFN-γ secretion from whole blood, pre-complexed, donor #92023", "setting": "human IL-33 [4]", "result": 8.46}, {"measurement": "pIC50, inhibition of 100 ng/mL IL-33/IL-12 induced IFN-γ secretion from whole blood, pre-complexed, donor #92186", "setting": "human IL-33 [4]", "result": 8.52}, {"measurement": "pIC50, inhibition of 100 ng/mL IL-33/IL-12 induced IFN-γ secretion from whole blood, pre-complexed, donor #92187", "setting": "human IL-33 [4]", "result": 8.32}, {"measurement": "pIC50, inhibition of 100 ng/mL IL-33/IL-12 induced IFN-γ secretion from whole blood, pre-complexed, donor #92257", "setting": "human IL-33 [4]", "result": 8.58}, {"measurement": "pIC50, inhibition of 100 ng/mL IL-33/IL-12 induced IFN-γ secretion from whole blood, pre-complexed, donor #92258", "setting": "human IL-33 [4]", "result": 8.1}, {"measurement": "Kd", "setting": "cFcgRIIb", "result": 1100, "unit": "nM"}, {"measurement": "Kd", "setting": "cFcgRIIIa", "result": 119, "unit": "nM"}, {"measurement": "Kd", "setting": "hFcgRIIIa (V158)", "result": 215, "unit": "nM"}, {"measurement": "Kd", "setting": "hFcgRIIa (H131)", "result": 574, "unit": "nM"}, {"measurement": "Kd", "setting": "hFcgRIIb", "result": 5220, "unit": "nM"}]}
